Usually Kd stands for the free concentration of one partner at which half of the binding sites on the other are occupied at equilibrium, for simple one-to-one binding. Lower therefore signals a tighter complex. A word on the kon: it is a measure of how fast the partners come together. High values mean fast association, low ones slow association.

Where “and” joins values, the source holds several entries; their conditions need not be identical. Equal values may be shown once.

2 substances from PMC3924271 can be followed below.

Experiment [1] addresses Rabbit skeletal muscle actin, monomeric (G-actin) (rabbit) (UniProt P68135). Nature of the experiment: SPR. (SPR reads the build-up and loss of mass on a sensor chip optically.)
The target in experiment [2] is Rabbit skeletal muscle actin, filamentous (F-actin) (rabbit) (UniProt P68135).
Experiment [3] concerns the target Rabbit skeletal muscle actin, monomeric (G-actin) (rabbit) (UniProt P68135). Nature of the experiment: cross-linking.

In experiment [1], PfADF1.K72A (natural protein) registered a Kd of 33 µM and an on-rate constant (kon) of 64.2 M⁻¹ s⁻¹.
“Plasmodium falciparum actin depolymerizing factor 1 (PfADF1), wild type (natural protein)” displayed a filament pitch by negative-stain TEM, similar concentration of PfADF1 in experiment [2] of 39.4 nm. Further, in experiment [1], the Kd is 3.5 µM and the kon came to 95.9 M⁻¹ s⁻¹. Also, the percent of actin and PfADF1 linked by EDC in experiment [3] was 10% and 25%.
